B1: Focal adhesion kinase 1 (Homo sapiens), Q05397 (parent)
chain: MAAAYLDPNLNHTPNSSTKTHLGTGMERSPGAMERVLKVFHYFESNSEPTTWASIIRHGDATDVRGIIQKIVDSHKVKHVACYGFRLSHLRSEEVHWLHVDMGVSSVREKYELAHPPEEWKYELRIRYLPKGFLNQFTEDKPTLNFFYQQVKSDYMLEIADQVDQEIALKLGCLEIRRSYWEMRGNALEKKSNYEVLEKDVGLKRFFPKSLLDSVKAKTLRKLIQQTFRQFANLNREESILKFFEILSPVYRFDKECFKCALGSSWIISVELAIGPEEGISYLTDKGCNPTHLADFTQVQTIQYSNSEDKDRKGMLQLKIAGAPEPLTVTAPSLTIAENMADLIDGYCRLVNGTSQSFIIRPQKEGERALPSIPKLANSEKQGMRTHAVSVSETDDYAEIIDEEDTYTMPSTRDYEIQRERIELGRCIGEGQFGDVHQGIYMSPENPALAVAIKTCKNCTSDSVREKFLQEALTMRQFDHPHIVKLIGVITENPVWIIMELCTLGELRSFLQVRKYSLDLASLILYAYQLSTALAYLESKRFVHRDIAARNVLVSSNDCVKLGDFGLSRYMEDSTYYKASKGKLPIKWMAPESINFRRFTSASDVWMFGVCMWEILMHGVKPFQGVKNNDVIGRIENGERLPMPPNCPPTLYSLMTKCWAYDPSRRPRFTELKAQLSTILEEEKAQQEERMRMESRRQATVSWDSGGSDEAPPKPSRPGYPSPRSSEGFYPSPQHMVQTNHYQVSGYPGSHGITAMAGSIYPGQASLLDQTDSWNHRPQEIAMWQPNVEDSTVLDLRGIGQVLPTHLMEERLIRQQQEMEEDQRWLEKEERFLKPDVRLSRGSIDREDGSLQGPIGNQHIYQPVGKPDPAAPPKKPPRPGAPGHLGSLASLSSPADSYNEGVKLQPQEISPPPTANLDRSNDKVYENVTGLVKAVIEMSSKIQPAPPEEYVPMVKEVGLALRTLLATVDETIPLLPASTHREIEMAQKLLNSDLGELINKMKLAQQYVMTSLQQEYKKQMLTAAHALAVDAKNLLDVIDQARLKMLGQTRPH

Variants of: B1
Settings: with tln1_chick TLN1, P54939
tln1_chick TLN1, P54939, sequence (P54939 whole entry): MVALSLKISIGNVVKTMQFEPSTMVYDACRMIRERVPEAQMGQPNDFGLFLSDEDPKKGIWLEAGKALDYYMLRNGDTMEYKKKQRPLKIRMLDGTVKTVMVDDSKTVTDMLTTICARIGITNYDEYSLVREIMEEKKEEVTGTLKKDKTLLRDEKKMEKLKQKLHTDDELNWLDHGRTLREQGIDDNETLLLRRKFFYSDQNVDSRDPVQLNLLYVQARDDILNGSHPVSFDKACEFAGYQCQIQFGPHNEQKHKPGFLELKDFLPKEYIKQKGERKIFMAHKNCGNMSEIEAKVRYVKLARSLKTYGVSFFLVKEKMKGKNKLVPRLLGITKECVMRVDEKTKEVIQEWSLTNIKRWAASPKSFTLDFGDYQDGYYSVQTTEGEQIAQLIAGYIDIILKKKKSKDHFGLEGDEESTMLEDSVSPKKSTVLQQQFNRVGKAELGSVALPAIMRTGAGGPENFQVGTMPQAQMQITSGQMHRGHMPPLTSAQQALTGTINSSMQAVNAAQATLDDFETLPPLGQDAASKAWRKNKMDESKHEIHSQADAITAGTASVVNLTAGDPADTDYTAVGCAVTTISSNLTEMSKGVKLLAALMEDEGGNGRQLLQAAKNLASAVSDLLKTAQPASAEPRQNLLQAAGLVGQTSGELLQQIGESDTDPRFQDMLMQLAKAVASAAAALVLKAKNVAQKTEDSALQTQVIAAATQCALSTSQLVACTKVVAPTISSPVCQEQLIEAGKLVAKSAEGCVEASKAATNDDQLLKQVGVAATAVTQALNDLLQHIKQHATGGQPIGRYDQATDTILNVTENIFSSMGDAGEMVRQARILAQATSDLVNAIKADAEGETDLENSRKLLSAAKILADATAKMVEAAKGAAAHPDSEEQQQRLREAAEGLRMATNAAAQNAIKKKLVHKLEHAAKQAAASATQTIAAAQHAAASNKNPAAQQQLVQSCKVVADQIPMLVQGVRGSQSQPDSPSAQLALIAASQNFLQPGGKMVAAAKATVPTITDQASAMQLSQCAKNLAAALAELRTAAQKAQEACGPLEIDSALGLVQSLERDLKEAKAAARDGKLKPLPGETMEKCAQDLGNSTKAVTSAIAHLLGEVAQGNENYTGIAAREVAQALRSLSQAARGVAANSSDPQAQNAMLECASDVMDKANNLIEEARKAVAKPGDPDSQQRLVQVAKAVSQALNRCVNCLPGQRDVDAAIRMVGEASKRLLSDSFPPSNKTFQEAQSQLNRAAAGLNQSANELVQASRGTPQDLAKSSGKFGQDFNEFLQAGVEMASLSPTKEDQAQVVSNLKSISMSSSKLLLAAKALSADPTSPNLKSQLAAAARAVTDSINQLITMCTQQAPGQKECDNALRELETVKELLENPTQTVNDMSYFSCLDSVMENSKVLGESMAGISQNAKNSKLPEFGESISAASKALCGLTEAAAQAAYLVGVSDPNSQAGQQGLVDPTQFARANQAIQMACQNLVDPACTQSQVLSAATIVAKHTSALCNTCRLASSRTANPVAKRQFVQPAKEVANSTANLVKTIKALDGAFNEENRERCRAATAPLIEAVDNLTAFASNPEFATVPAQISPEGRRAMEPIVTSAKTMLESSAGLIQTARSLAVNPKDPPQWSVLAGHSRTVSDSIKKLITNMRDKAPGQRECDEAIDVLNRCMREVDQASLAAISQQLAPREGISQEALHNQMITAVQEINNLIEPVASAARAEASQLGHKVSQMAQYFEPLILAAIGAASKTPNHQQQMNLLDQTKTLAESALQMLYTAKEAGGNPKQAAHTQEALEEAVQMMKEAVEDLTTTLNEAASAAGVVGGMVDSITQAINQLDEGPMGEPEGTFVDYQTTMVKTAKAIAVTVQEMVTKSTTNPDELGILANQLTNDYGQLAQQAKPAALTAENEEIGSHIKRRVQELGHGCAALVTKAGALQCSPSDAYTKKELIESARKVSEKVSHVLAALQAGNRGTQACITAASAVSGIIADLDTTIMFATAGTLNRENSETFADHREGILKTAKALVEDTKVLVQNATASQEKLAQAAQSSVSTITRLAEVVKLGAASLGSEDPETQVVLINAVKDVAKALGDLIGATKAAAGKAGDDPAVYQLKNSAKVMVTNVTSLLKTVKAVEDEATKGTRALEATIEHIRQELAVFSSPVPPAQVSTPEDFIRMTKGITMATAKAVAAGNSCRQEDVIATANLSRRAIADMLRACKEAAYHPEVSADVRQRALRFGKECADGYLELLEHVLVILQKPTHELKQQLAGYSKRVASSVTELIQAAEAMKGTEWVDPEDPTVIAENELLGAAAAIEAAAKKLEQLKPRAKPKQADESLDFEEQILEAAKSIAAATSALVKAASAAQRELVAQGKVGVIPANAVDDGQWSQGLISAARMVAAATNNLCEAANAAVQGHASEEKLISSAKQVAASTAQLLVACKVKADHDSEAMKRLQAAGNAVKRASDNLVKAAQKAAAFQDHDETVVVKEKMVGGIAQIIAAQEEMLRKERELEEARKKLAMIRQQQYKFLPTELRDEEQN

Variant | effect of a mutation on the interaction
E1015A | disrupting interaction
